In publication PMC8203652, “Facile fabrication of antibacterial and antiviral perhydrolase-polydopamine composite coatings” (Scientific Reports, 2021):

Substrate: CC(=O)OCC(C)OC(C)=O
Test: purified protein
Format: biochemical, Mycolicibacterium smegmatis
Details: free enzyme; 200 mM H2O2 constant, PGD 3-100 mM, PBS; apparent (two-substrate reaction)

B1: AcT (perhydrolase S54V) (Mycolicibacterium smegmatis MC2 155; S54V) (protein)
chain: MAKRILCFGDSLTWGWVPVEDGAPTERFAPDVRWTGVLAQQLGADFEVIEEGLVARTTNIDDPTDPRLNGASYLPSCLATHLPLDLVIIMLGTNDTKAYFRRTPLDIALGMSVLVTQVLTSAGGVGTTYPAPKVLVVSPPPLAPMPHPWFQLIFEGGEQKTTELARVYSALASFMKVPFFDAGSVISTDGVDGIHFTEANNRDLGVALAEQVRSLL
notes: synthetic gene in pET28a, N-terminal His8 tag and thrombin site (LVPRGS), expressed in E. coli BL21(DE3), Ni-NTA purified; MW 180 kDa printed; S54V printed in the introduction only
Q: B1 was tested. Which Km did it give?
A: 13 mM

Q: What about the kcat of the same protein?
A: 4700 s⁻¹
